# Results: the supplement of paper PMC10065799, “High-throughput profiling of sequence recognition by tyrosine kinases and SH2 domains using bacterial peptide display” (eLife, 2023)
# Experiments:
# AncSZ = experiment: phosphorylation enrichment, bacterial display (enrichment ratio); higher = better substrate or ligand; peptides without Tyr show the background
# EPHB1 = EPHB1 (UniProt P54762); experiment: as above
# EPHB2 = EPHB2 (UniProt P29323); experiment: as above
# FGFR1 = FGFR1 (UniProt P11362); experiment: as above
# FGFR1, sequence (P11362 whole entry, looked up): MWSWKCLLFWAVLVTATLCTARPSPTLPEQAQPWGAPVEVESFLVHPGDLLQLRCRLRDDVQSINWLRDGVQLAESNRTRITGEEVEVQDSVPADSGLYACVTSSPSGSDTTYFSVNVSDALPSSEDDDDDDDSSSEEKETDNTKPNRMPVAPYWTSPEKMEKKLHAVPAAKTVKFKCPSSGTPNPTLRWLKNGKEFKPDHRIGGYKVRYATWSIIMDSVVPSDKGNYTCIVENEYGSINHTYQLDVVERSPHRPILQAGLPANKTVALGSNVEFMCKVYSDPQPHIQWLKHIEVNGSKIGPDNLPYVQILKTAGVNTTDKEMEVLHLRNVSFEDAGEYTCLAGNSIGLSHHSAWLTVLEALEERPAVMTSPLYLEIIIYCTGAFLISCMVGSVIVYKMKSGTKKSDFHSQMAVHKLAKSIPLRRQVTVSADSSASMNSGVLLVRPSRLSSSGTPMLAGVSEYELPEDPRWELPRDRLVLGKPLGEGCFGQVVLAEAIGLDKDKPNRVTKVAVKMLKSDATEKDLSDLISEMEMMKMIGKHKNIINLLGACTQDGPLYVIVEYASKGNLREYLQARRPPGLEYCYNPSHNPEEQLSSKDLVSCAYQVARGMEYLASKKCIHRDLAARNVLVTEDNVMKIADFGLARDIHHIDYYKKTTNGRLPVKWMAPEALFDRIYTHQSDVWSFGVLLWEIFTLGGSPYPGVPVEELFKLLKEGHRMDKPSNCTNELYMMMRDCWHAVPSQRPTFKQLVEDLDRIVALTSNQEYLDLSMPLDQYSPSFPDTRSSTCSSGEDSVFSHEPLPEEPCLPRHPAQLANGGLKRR
# FGFR3 = FGFR3 (UniProt P22607); experiment: as above
# FGFR3, sequence (P22607 whole entry, looked up): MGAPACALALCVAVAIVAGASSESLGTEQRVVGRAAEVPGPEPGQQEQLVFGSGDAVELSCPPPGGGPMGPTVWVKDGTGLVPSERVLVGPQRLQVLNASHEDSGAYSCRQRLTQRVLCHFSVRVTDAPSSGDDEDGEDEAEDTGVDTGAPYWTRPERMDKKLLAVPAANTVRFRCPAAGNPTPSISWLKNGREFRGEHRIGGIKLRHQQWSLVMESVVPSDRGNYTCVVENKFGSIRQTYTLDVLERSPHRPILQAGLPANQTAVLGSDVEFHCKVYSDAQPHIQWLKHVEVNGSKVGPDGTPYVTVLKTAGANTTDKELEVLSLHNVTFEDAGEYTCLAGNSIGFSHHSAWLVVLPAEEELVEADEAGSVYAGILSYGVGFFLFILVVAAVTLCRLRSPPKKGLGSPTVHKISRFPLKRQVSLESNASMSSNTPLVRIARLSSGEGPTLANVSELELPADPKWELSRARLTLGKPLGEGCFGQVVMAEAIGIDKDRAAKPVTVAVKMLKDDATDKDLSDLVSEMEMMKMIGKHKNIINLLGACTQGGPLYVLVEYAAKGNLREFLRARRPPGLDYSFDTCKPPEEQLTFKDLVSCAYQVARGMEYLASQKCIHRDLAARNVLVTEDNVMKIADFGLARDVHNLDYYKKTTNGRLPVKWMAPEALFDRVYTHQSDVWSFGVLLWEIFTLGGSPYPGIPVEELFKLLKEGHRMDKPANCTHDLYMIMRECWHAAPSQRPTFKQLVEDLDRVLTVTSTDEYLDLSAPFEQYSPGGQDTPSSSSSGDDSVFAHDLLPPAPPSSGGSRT
# Fer (mouse) = experiment: as above
# Fes = Fes (UniProt P07332); experiment: as above
# Fyn = Fyn (UniProt P06241); experiment: as above
# Fyn, sequence (P06241 whole entry, looked up): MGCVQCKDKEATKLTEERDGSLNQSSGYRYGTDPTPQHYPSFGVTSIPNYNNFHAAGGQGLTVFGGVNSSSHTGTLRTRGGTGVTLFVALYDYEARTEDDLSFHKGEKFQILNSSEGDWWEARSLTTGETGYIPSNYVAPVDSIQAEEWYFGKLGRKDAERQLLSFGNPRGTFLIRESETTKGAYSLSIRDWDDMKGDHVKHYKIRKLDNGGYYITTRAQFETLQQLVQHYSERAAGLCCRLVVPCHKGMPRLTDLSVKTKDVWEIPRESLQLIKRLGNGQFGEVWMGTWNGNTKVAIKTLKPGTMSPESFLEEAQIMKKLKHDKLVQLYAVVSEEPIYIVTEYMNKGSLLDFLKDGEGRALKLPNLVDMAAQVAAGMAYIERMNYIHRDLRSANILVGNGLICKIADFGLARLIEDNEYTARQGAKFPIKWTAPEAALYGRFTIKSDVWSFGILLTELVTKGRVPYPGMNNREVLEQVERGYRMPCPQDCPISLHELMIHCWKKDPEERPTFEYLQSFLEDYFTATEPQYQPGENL
# Hck = Hck (UniProt P08631); experiment: as above
# Hck, sequence (P08631 whole entry, looked up): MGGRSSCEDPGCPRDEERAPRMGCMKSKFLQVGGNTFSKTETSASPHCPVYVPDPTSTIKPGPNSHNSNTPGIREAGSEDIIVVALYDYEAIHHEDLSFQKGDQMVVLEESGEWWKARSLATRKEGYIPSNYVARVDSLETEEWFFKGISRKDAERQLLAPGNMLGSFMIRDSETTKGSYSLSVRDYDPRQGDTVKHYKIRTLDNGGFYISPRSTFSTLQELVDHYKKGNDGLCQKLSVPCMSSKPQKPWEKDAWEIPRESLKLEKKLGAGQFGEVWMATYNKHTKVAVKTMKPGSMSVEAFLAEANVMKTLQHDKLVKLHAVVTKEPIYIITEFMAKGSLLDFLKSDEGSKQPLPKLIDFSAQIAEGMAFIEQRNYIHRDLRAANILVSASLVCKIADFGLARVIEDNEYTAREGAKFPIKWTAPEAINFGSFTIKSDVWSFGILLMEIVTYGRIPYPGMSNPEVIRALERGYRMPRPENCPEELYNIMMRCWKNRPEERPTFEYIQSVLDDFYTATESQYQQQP
# Jak2 = Jak2 (UniProt O60674); experiment: as above
# Jak2, sequence (O60674 whole entry, looked up): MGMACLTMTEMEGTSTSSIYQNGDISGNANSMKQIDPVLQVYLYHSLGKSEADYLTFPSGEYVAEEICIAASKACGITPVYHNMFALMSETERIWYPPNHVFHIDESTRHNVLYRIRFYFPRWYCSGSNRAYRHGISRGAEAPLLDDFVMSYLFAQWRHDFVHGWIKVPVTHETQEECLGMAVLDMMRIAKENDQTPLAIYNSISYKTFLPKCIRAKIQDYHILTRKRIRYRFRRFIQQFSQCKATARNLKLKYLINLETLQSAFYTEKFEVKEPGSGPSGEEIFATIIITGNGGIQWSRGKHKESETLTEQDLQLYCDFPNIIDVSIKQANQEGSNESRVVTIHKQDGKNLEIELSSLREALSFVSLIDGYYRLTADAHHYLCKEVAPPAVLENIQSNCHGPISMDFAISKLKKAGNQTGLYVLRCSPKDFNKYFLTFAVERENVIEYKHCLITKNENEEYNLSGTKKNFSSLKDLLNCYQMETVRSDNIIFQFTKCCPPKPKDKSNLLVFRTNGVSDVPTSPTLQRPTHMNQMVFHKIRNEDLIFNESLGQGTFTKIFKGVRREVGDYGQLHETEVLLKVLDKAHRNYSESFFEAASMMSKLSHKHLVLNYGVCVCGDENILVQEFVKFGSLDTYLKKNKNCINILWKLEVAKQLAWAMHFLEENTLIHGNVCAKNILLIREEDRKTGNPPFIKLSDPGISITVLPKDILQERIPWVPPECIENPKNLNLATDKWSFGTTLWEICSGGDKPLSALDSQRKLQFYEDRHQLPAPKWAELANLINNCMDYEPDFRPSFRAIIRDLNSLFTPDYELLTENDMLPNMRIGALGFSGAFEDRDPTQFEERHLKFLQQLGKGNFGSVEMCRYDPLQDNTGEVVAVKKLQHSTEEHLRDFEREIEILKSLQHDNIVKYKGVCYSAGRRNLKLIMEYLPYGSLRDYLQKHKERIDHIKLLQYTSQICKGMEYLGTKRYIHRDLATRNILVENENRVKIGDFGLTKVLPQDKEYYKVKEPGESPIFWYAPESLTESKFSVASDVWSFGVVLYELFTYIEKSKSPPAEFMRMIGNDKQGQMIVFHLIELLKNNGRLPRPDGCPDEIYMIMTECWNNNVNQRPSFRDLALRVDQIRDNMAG
# MERTK = MERTK (UniProt Q12866); experiment: as above
# MERTK, sequence (Q12866 whole entry, looked up): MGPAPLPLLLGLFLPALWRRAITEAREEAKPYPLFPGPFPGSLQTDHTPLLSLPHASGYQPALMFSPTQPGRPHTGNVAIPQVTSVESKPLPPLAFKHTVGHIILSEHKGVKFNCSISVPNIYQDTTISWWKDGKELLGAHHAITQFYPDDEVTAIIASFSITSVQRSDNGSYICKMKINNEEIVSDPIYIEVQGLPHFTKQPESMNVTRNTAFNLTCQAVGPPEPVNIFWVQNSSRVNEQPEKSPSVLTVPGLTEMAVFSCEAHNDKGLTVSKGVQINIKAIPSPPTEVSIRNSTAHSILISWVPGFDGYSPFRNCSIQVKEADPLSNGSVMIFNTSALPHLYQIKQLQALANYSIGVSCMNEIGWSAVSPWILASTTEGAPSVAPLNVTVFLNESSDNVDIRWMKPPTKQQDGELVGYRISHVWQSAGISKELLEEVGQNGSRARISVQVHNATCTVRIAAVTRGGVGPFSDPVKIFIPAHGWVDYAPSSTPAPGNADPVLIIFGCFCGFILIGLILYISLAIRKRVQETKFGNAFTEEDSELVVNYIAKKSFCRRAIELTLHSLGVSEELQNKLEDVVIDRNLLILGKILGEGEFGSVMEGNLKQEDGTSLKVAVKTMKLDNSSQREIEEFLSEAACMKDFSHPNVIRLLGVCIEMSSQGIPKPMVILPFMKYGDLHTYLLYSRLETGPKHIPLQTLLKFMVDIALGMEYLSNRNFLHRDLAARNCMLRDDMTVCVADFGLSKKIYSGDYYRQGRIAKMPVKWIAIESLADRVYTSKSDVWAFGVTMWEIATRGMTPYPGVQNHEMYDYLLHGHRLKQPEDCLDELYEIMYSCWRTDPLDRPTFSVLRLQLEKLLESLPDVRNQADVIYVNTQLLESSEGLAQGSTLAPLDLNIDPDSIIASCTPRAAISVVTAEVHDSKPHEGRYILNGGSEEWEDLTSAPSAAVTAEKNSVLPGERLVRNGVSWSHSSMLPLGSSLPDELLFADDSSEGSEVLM
# c-Abl (mouse) = experiment: as above
# c-Src = experiment: as above
# Grb2 SH2 = Grb2 SH2 (UniProt P62993); experiment: SH2 binding enrichment of the phosphorylated peptide, bacterial display (enrichment ratio); higher = better substrate or ligand; peptides without Tyr show the background
# SHP2-C SH2 = experiment: as above
# c-Src SH2 = experiment: as above
# 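For SH2 binding enrichment of the phosphorylated peptide, bacterial display in this document: peptide library displayed on the E. coli surface as eCPX fusions, selected cells deep-sequenced, score is each peptide's frequency after selection divided by its frequency in the input.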
# 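For phosphorylation enrichment, bacterial display in this document: 11-residue human phosphosite peptides and single-mutation variants displayed on the E. coli surface, counted by deep sequencing, each peptide's frequency after selection divided by its frequency in the unselected input library; frequency after pTyr selection over input frequency; kinase dosed for 20-30% of maximal phosphorylation in three min.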
Sequence,SH2 binding enrichment (Grb2 SH2),SH2 binding enrichment (SHP2-C SH2),SH2 binding enrichment (c-Src SH2),phosphorylation enrichment (AncSZ),phosphorylation enrichment (EPHB1),phosphorylation enrichment (EPHB2),phosphorylation enrichment (FGFR1),phosphorylation enrichment (FGFR3),phosphorylation enrichment (Fer (mouse)),phosphorylation enrichment (Fes),phosphorylation enrichment (Fyn),phosphorylation enrichment (Hck),phosphorylation enrichment (Jak2),phosphorylation enrichment (MERTK),phosphorylation enrichment (c-Abl (mouse)),phosphorylation enrichment (c-Src)
WGLCSYFETSK [MAGED2_Y448_R446C_YF],1.11,0.797,0.698,1.29,0.671,0.633,0.768,0.847,0.62,1.55,0.423,0.523,1.34,0.403,0.926,0.698
WQQQSYLDSRI [CTNNB1_Y30_G34R],0.894,0.645,0.571,0.675,0.444,0.473,0.484,0.496,0.455,0.793,0.465,0.476,0.623,0.515,0.482,0.4
WYQTKYEELQI [KRT6B_Y360],0.798,1.2,5.9,1.11,0.454,0.639,0.503,0.727,0.614,1.23,0.474,0.649,1.15,0.437,0.741,0.552
YCGYSYDDIPD [TMEM230_Y112_R108C],0.988,1.43,10.6,2.47,0.818,0.954,1.53,1.57,1.95,1.34,0.932,0.799,1.36,1.03,0.926,1.75
YEAMEYLESKQ [BTK_Y511_C506Y],0.646,0.649,10,1.84,2.15,0.843,1.15,1.04,3.06,1.28,0.654,0.805,1.14,3.12,0.836,0.568
YEPDAYYDLDQ [ELP5_Y302_D303Y],0.807,0.626,1.88,1.82,1.05,0.833,8.16,6.94,0.919,1.56,1.62,0.852,1.61,0.65,0.861,2.06
YFRDGCMPRQY [GSS_Y270_Y270C],1.08,0.637,0.499,0.938,0.602,0.552,0.6,0.883,0.505,0.948,0.43,0.438,0.833,0.406,0.72,0.364
YHLLPYTIRAM [PARS2_Y93_V95I],0.994,1.14,6.08,1.14,1.17,0.873,16.6,13.8,0.464,0.83,3.83,9.37,7.24,10.9,25.4,5.16
YKTPTYPYLLP [PLD2_Y578],1.04,0.521,1.68,0.958,0.459,0.454,0.794,0.786,0.543,0.764,0.525,0.481,0.92,0.589,0.943,0.625
YLGRNYLETLM [DUS3L_Y610_D609N],1.01,1.1,0.41,0.859,0.578,0.467,0.85,0.744,0.487,0.926,0.435,0.551,0.705,0.467,0.765,0.411
YPKARYHWLVL [APTX_Y214],1.54,1.46,1.2,0.95,0.507,0.552,0.582,0.67,0.539,1.08,0.429,0.493,0.941,0.482,0.707,0.383
YPLAEYTEVKT [ALDH1A3_Y497_A493P],1.22,0.869,1.78,1.1,0.563,0.642,1.1,0.824,0.516,0.946,0.433,0.538,0.721,0.326,0.607,0.444
YVSLIYTNYEA [GSTP1_Y109_I105V],1.18,4.37,3.42,1.84,3.04,2.87,6.43,5.46,3.36,1.36,5.04,3.62,1.32,4.74,1.87,4.34

# The next lines start with results.
SH2 binding enrichment (Grb2 SH2),SH2 binding enrichment (SHP2-C SH2),SH2 binding enrichment (c-Src SH2),Sequence,phosphorylation enrichment (AncSZ),phosphorylation enrichment (EPHB1),phosphorylation enrichment (EPHB2),phosphorylation enrichment (FGFR1),phosphorylation enrichment (FGFR3),phosphorylation enrichment (Fer (mouse)),phosphorylation enrichment (Fes),phosphorylation enrichment (Fyn),phosphorylation enrichment (Hck),phosphorylation enrichment (Jak2),phosphorylation enrichment (MERTK),phosphorylation enrichment (c-Abl (mouse)),phosphorylation enrichment (c-Src)
1.21,0.959,0.883,WASGIYYVPKG [APBB1IP_Y340_R335W],3.2,15.3,17,8.05,7.15,5.91,1.05,10,10.1,8.67,11.5,31.1,6.92
0.895,0.773,0.642,WCSNDYLGMSR [ALAS2_Y199],1.85,0.959,0.752,1.57,1.25,0.5,0.845,0.551,0.781,3.41,0.398,0.6,0.843
0.848,0.78,0.513,WFKKFYDANCD [MAPRE2_Y158_Y162C],1,0.77,0.426,0.472,0.707,0.453,1.21,0.46,0.475,0.948,0.35,0.749,0.397
1.48,1.48,1.23,WFPFTYVEEDE [VAV3_Y842_S840Y_YF],1.19,0.702,0.473,0.52,0.692,0.547,1.11,0.516,0.437,1.1,0.453,0.655,0.521
0.879,1.91,3.92,WFPYTYVEEDE [VAV3_Y842_S840Y],1.47,1.16,0.773,1.56,1.72,0.899,1.3,0.843,0.616,1.08,0.625,0.746,1.3
1.3,1.37,1.19,WKGSWYSMKKM [FGB_Y475_R478K],0.736,0.645,0.506,0.488,0.553,0.353,0.918,0.488,0.437,0.859,0.362,0.533,0.373
1.2,0.855,3.48,YEEDPYLVVNP [MCM6_Y810],1.79,0.648,0.56,1.52,1.52,0.825,1.37,1.99,1.06,1.37,0.605,0.861,2.48
0.904,19.4,16.5,YEHVGYTTLNR [CHN1_Y148],0.72,0.616,0.758,0.725,0.597,4.18,0.658,0.657,2.79,0.725,4.18,1.01,0.655
0.984,2.38,6.95,YGLQAYTEVKT [ALDH2_Y502],1.27,0.721,0.67,0.59,0.842,0.704,1.29,0.546,0.488,1.06,0.55,0.834,0.439
0.878,0.565,0.435,YHLGKYLQEVL [KLB_Y910_Y906H],1.18,0.481,0.724,0.527,0.739,0.452,1.1,0.524,0.498,0.87,0.383,0.685,0.298
1.35,1.52,1.89,YIGVTYKNEED [PDGFRA_Y993],1,0.602,0.539,0.71,0.822,0.555,1.05,0.528,0.509,0.961,0.433,0.666,0.461
0.872,0.859,0.764,YLAATYPTLGQ [NF1_Y2508_V2511L],0.779,0.331,0.663,0.824,0.642,0.677,0.773,0.433,0.633,0.754,0.742,0.774,0.637
0.796,0.97,0.515,YLAATYPTVGQ [NF1_Y2508],0.677,0.357,0.472,0.582,0.51,0.357,0.753,0.455,0.454,1.08,0.73,0.518,0.407
1.01,0.854,5.88,YPRTGYSVPYG [TGM1_Y370_L366P],0.714,0.418,0.519,0.525,0.545,0.383,0.78,0.459,0.453,0.925,0.55,0.681,0.406
1.49,1.83,1.11,YQQLFYLLQTN [IQGAP2_Y890],1.36,1.92,0.758,2.75,2.26,0.692,1.35,0.751,1.17,1.39,2.7,1.03,1.3
0.87,0.707,0.941,YRDMDYRSYPR [RBM10_Y41],0.64,0.477,0.475,2.3,1.37,0.415,0.895,0.402,0.4,0.55,0.519,0.607,0.547
0.682,1.48,1.59,YSGLAYTMERS [GLUD1_Y512_H507Y],0.765,0.386,0.355,0.463,0.558,0.398,0.833,1.09,1.64,0.873,0.849,0.607,1.43
0.766,0.564,0.504,YSMGCYEISLE [HMGCL_Y198_G203E],2.01,1.01,0.907,0.582,1.09,1.82,1.35,1.65,1.23,1.08,1.51,0.806,2.02
1.43,1.63,4.39,YYYDLYGGEKF [PTPN11_Y66_D61Y],1.98,7.99,11.5,14.7,13.6,4.15,1.3,5.97,6.45,5.36,9.48,0.964,5.71
